Data reported in PMC3466776 (Biochemistry, 2012).
No end group written: not given here.

Legend:
Assay in all cases: stopped-flow fluorescence
[1] = target: wild-type calmodulin (His-CaM) (rat, UniProt P0DP29 1-149)
[2] = target: C-lobe mutant of calmodulin (CaM34) (rat, UniProt P0DP29 1-149, D93 to alanine | D129 to alanine)
[3] = target: N-lobe mutant of calmodulin (CaM12) (rat, UniProt P0DP29 1-149, D20 to alanine | D56 to alanine)

YSLAAVVLGLVQSLNRQRQKQLLNE-NH2 [AC8-C2b peptide]: binds [1]; binds [2].

IKPAKRMKFKTVCYLLVQLMHCRKMFKA (C-terminal amide) [AC1-C1b peptide]: binds [1]; binds [3].

GSRPQRLLWQTAVRHITEQRFIHGH-NH2 [AC8-Nt peptide]: binds [1]; binds [3].
